Laboratory results published in patent US20210009703A1.

Molecular target: cynomolgus CD25 expressed on cells (Cynomolgus monkey) (UniProt H6WS54)
Assay: flow cytometry on cyno-CD25-CHO-S cells, 100 nM antibody, anti-human R-PE

Substance: IgG1 Isotype (antibody)
- MFI: 82
